Columns and labels:
[1] = target: the molecule itself; assay: native gel or EMSA; one in vitro translated DMRT protein (4 ul translation mix) with 32P-labelled dsDNA probe bearing the DMRT1 consensus site; monomer and dimer complexes seen on DNA; 10 mM Tris-HCl pH 7.9, 100 mM KCl, 10% glycerol, 5 mM MgCl2, 1 mM spermidine, 0.075% Triton-X-100, 1 mM DTT; on ice 10 min; 5% native gel at 4 C
[2] = target: the molecule itself; assay: native gel or EMSA; DMRT1 alone or together with a Myc-tagged DMRT protein (in vitro translated) on labelled DMRT1 consensus probe; composition of the DNA/protein complexes tested by supershift with DMRT1 antibody or anti-Myc 9E10; dimers seen on DNA

| Protein | stoichiometry N [1] | stoichiometry N [2] |
| --- | --- | --- |
| DMRT3 (mouse), Myc epitope tagged, in vitro translated (natural protein, UniProt Q80WT2 1-476, looked up, DMRT3, mouse; also called tagged DMRT3; source: in vitro translated (TNT Quick Coupled transcription/translation system, Promega, with 20 uM ZnSO4), not purified) MNGYGSPYLYMGGPVSQPPRAPLQRTPKCARCRNHGVLSWLKGHKRYCRFKDCTCEKCILIIERQRVMAAQVALRRQQANESLESLIPDSLRALPGPPPPGDAAATAATASQSSPASQASQPPAPPRPTAELAAAAALRWVAEPQPGTLPAQLAKPDLTEERVGDSSSTDNTAEAFSDKDTDQRSSPDVVKSKNCFTPESPEIVSVDEGGYAVQKNGGNPESCPDSPKYHAEQSHLLIEGPSGTVSLPFSLKANRPPLEVLKKIFPNQKPTVLELILKGCGGDLVSAVEVLLSSRSSAAGAERTAEESLVLPSSGHIFEHTLGSYPISSSKWSVGSAFRVPDTLRFSADSSNVVPNPLAVPLQHPFPQPPRYPLMLRNTLARNQSSPFLPNDVTLWNTMTLQQQYQLRSQYVSPFPSNSTSVFRSSPVLSSRTTEDPRISIPDDGCPIVTKQSIYTEDDYDERSDSSDSRILNTSS | 2 | – |
| DMRT1 of the heterodimerization gel shifts (complex not affected by the 9E10 anti-Myc antibody) (natural protein, DMRT1, mouse; the construct used in this experiment is not described; The methods describe only a Myc-tagged DMRT1 construct; source: in vitro translated, not purified) not shown | – | 2 |
| DMRT5 (mouse), Myc epitope tagged, in vitro translated (natural protein, UniProt A2A9A2 1-531, looked up, DMRT5, mouse; source: in vitro translated (TNT Quick Coupled transcription/translation system, Promega, with 20 uM ZnSO4), not purified) MELRSELPSVPGAATAAATATGPPVASVASVAAAAAAAASLPVSVAGGLLRAPPLLLRAAEKYPRTPKCARCRNHGVVSALKGHKRYCRWKDCLCAKCTLIAERQRVMAAQVALRRQQAQEENEARELQLLYGTAEGLALAAANGIIPPRPAYEVFGSVCATDGGGPGAGAPAGSAGGAGGAEAKLQKFDLFPKTLLQAGRPDSPQPPPGKPLSPDGADSGPRTSSPEVRPGSGSENGDGESFSGSPLARASKEAGGSCPGSAGAGGGGEEDSPGSSSPLGSESGSEADKEEAEAAPTPGLGGGPGPRQRTPLDILTRVFPGHRRGVLELVLQGCGGDVVQAIEQVLNHHRGGLAAGLGPAAPLEKAAVSAAVEDAWPGRVEAAAAGGAGLPAPLQTGPTAPPHHRPLLAGAMTPGALGSLSSRSAFSPLQPNASHFGADAGAYPLGAPLGLSPLRLAYSAAAAHSRGLAFMAPYSTAGLVPTLGFRPPMDYAFSDLMRDRSAAAAAAVHKEPGYGGGLYGPMVNGTPEKQ | 2 | – |
| DMRT1 (mouse), full-length, amino-terminal Myc epitope tag, in vitro translated (natural protein, DMRT1, mouse, full-length protein made by in vitro transcription/translation; also called in vitro translated DMRT1; source: in vitro translated (TNT Quick Coupled transcription/translation system, Promega, with 20 uM ZnSO4), not purified) not shown | 2 | – |

Reference: publication PMC1931443, “Vertebrate DM domain proteins bind similar DNA sequences and can heterodimerize on DNA” (BMC Molecular Biology, 2007)
